26 sequences from the supplement of paper PMC12764529 can be followed below.

± gives the half width of the 95% confidence interval.

Data set [1] is described as follows: folding stability dG unfold from trypsin proteolysis; higher = more stable. An outline of the steps: (§1)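 Designed mini-proteins with no cysteine and under 80 residues were kept only if AlphaFold2 dimer inter-PAE was above 15. In a PA-tagged cDNA display construct, they were digested with trypsin and chymotrypsin and then sequenced. K50 was inferred by Bayesian fitting of counts, and unfolding free energy was derived per protease or combined against a sequence-predicted unfolded-state K50 and a shared folded-state K50.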

Data set [2] is described as follows: folding stability dG unfold from chymotrypsin proteolysis; higher = more stable. An outline of the steps:
as §1

Data set [3] can be described thus: folding stability dG unfold (combined trypsin and chymotrypsin); higher = more stable. The procedure, abridged:
as §1

In the case of “SLSKSTPVSSLEEALKIAKEAAEEFEKELGKPYPVLVEVEFEPLEDGSVLVRFKLYRPEEGKYLREIEVGSA [r9_794_TrMRF]”, the “folding stability dG unfold” value in data set [1] was found to be 0.874 ± 0.064 kcal/mol; in data set [2] it was 1.67 ± 0.2 kcal/mol; in data set [3], 1.38 ± 0.18 kcal/mol.

For the sequence “SLTLTDPVLVLVEVDLYNPETGAPTKRSLAVLVPPGTPVTVTLPGVHPDARVRVTVYTPNGKPLGEFELPSA [r9_478_TrMRF]”, the “folding stability dG unfold” value was 2.1 ± 0.13 kcal/mol in data set [1], 2.12 ± 0.12 kcal/mol in data set [2] and 2.26 ± 0.14 kcal/mol in data set [3].

In the case of “SMEDMSVEELLELLREKLREAREKGKSLEDIKITIVIVAETEEEKEAIAKALKEEFPEIKEIKIEVLPPESA [r9_341_TrROS_Hall]”, the figures for the “folding stability dG unfold” value in data set [1], in data set [2] and in data set [3] were 3.06 ± 0.14 kcal/mol, 2.64 ± 0.15 kcal/mol and 2.92 ± 0.26 kcal/mol, respectively.

“SMEEELPPKVTEVVVKVPLSPDASPEEIAAARALAAELAAALEAAGYRDVEVTVEPTEPGALVIRARVVVSA [r9_865_JUSTAS]”: the “folding stability dG unfold” value is 2.79 ± 0.036 kcal/mol in data set [1], 4.36 ± 0.057 kcal/mol in data set [2] and 3.908 ± 0.034 kcal/mol in data set [3].

For the sequence “SMEEFAKSLPDVKIETKPLSPDEIEITVYIPSDPEKAKKVEEIVKKLAEEIEKKTGIKVKVTFKPVPPEESA [r9_1099_JUSTAS]”, the results for the “folding stability dG unfold” value in data set [1], in data set [2] and in data set [3] were 3.24 ± 0.24 kcal/mol, 3.32 ± 0.21 kcal/mol and 3.59 ± 0.68 kcal/mol, respectively.

For the sequence “SMEELLEKALEEAKEAAEKGEKTVIIEIRVDGKTFRIEIDVETGEIVKIEKEKREDGSEIFRIEIKLPEPSA [r9_308_TrROS_Hall]”, the “folding stability dG unfold” value in data set [1] turned out to be 0.695 ± 0.07 kcal/mol; in data set [2], 1.61 ± 0.086 kcal/mol; in data set [3], 1.3 ± 0.39 kcal/mol.

As for “SMEIRIKEVNEDGYLVIEIRVLSEDGKELTPEEVEELAEEIAAELKEKFPDVKVTVERLEDGTVRIVVEPSA [r9_485_TrROS_Hall]”, the “folding stability dG unfold” value in data set [1] was determined as 3.19 ± 0.15 kcal/mol; in data set [2] it was 2.65 ± 0.15 kcal/mol; in data set [3] it was 2.89 ± 0.22 kcal/mol.

With “SMETPPEELVERVREYLASQGYTVTSVEVTPLPDGSVRVEVTATPPDASTTLTITVTVPPDGTVVVEVTAQS [r1_460_JUSTAS]”, the “folding stability dG unfold” value was 3.76 ± 0.2 kcal/mol in data set [1], 5.26 ± 0.12 kcal/mol in data set [2] and 5.3 ± 0.15 kcal/mol in data set [3].

For the sequence “SMETVELRVRVRVFNPETGELVEEIEVTVTLPKGMTLEEALRRAREALREALERLLRPPEPVLDEDGRLVSA [r9_454_TrROS_Hall]”, the “folding stability dG unfold” value in data set [1] stood at 3.66 ± 0.12 kcal/mol; in data set [2], 4.26 ± 0.19 kcal/mol; in data set [3] it was 3.99 ± 0.14 kcal/mol.

For “SMEVEFDPENRTIVATVPEGVDPLAVAATLLAVVRELFDSGPVRLIVTNGDEVLEYLLGEDVLEVRPAGESA [r9_224_TrMRF]”, the “folding stability dG unfold” value in data set [1] came out at 3.26 ± 0.11 kcal/mol; in data set [2], 4.21 ± 0.11 kcal/mol; in data set [3], 4.01 ± 0.1 kcal/mol.

“SMEVVEEFTLPNGTRITLTKNEDGTVTVTLETTVKNPETGKTTTKTVTITVKLEPGEEYSLEELLATLLSSA [r9_614_TrROS_Hall]”: the “folding stability dG unfold” value is 3.5 ± 0.12 kcal/mol in data set [1], 3.77 ± 0.039 kcal/mol in data set [2] and 3.7 ± 0.078 kcal/mol in data set [3].

In the case of “SMEVYTEETEEKSPTPLRRRTTTTTVVTRDGSRTVVTVETRVELEPVPPVPPRPLPPIYTPENREVNILLSA [r9_965_JUSTAS]”, the “folding stability dG unfold” value in data set [1] was determined as 1.54 ± 0.17 kcal/mol; in data set [2], 0.51 ± 0.81 kcal/mol; in data set [3] it was 1.38 ± 0.73 kcal/mol.

For “SMFKNVKSVHIYQDPIKGNNLIIVAETEEGTVELELPEDKAIEFLNTLKEKGFDIKVTHVEYLPVSPEYGSA [r9_607_TrMRF]”, the “folding stability dG unfold” value in data set [1] turned out to be 2.19 ± 0.064 kcal/mol; in data set [2] it was 2.453 ± 0.011 kcal/mol; in data set [3] it was 2.36 ± 0.081 kcal/mol.

For “SMIKPDEVVEKIEFTFPDGVAGDTRTFPVPEGSVIVYIDLGEPVYVMEILEDGSVKIEPVPEEVAKELAKSA [r9_1144_TrMRF]”, the “folding stability dG unfold” value came out at 0.37 ± 0.048 kcal/mol in data set [1], 0.115 ± 0.1 kcal/mol in data set [2] and 0.3 ± 0.12 kcal/mol in data set [3].

Take “SMIPVEELVRLAAERLGLPEEELENIEEVEPFEVEPLPDNAVRVKLRIRLKNPESDEVTELDIEIVDPGGSA [r9_230_TrMRF]”: the “folding stability dG unfold” value stood at 1.2 ± 0.021 kcal/mol in data set [1], 2.21 ± 0.033 kcal/mol in data set [2] and 1.92 ± 0.072 kcal/mol in data set [3].

For the sequence “SMIQVDIKPDAINVTVTKEGKSVTVPMDLEELEELLKKGVEKVEIKSPDPEVLEKIKELVEKAGVPIELKSA [r9_810_JUSTAS]”, the entries for the “folding stability dG unfold” value in data set [1], in data set [2] and in data set [3] were 1.09 ± 0.1 kcal/mol, 0.686 ± 0.06 kcal/mol and 1.02 ± 0.25 kcal/mol, respectively.

“SMISLEKETSLPPEEARRAVERFLAELPEVERLLSVEVREDPDSYTVSLTLEGGAVSPEVLEAIERALAASA [r9_195_JUSTAS]”: the “folding stability dG unfold” value in data set [1] was 2.54 ± 0.053 kcal/mol; in data set [2], 2.71 ± 0.039 kcal/mol; in data set [3], 2.63 ± 0.062 kcal/mol.

As to “SMKIEKKDGKYVLTIKIKADSVEEVLNALKKLGIKFPPGVKEIKVVKVEEVNGEVYITIVVDTEEALKALSA [r9_820_TrROS_Hall]”, the “folding stability dG unfold” value came to 2.93 ± 0.13 kcal/mol in data set [1], 2.34 ± 0.09 kcal/mol in data set [2] and 2.6 ± 0.28 kcal/mol in data set [3].

Regarding “SMKIEPHPDGTVTFTIPAEFPDIPAEEIAALIEKALPPGVRLGEEITVERDPETGEVRVTAKVEVPPDAVSA [r9_1011_TrMRF]”, the “folding stability dG unfold” value in data set [1] came out at 2.49 ± 0.12 kcal/mol; in data set [2] it was 2.81 ± 0.073 kcal/mol; in data set [3] it was 2.74 ± 0.12 kcal/mol.

On to “SMKILIVTKEKAEELAEAIKKKFPNIEIEVFDTPEEAEEAAKKGDIVIVIGSEEEAKELAKKLKVKVIKISA [r9_380_TrROS_Hall]”, for which the “folding stability dG unfold” value came to 2.19 ± 0.09 kcal/mol in data set [1], 3.39 ± 0.12 kcal/mol in data set [2] and 2.86 ± 0.45 kcal/mol in data set [3].

Regarding “SMKITPLPGPEEVAEFPETGETITITRDPSTGLVTVTYNGPGTPVTATTDPAVGTVTVNTPDGKITIPLTSA [r9_541_JUSTAS]”, the “folding stability dG unfold” value is 0.669 ± 0.02 kcal/mol in data set [1], -0.512 ± 0.22 kcal/mol in data set [2] and 0.346 ± 0.072 kcal/mol in data set [3].

Turning to “SMKIYILSSGDKEKVLAEVKEKYPDLEIELFEDIEEAKKAAEKGNLLISNGDEELAKEFEEKYNVKVIIKSA [r9_380_JUSTAS]”, the figures for the “folding stability dG unfold” value in data set [1], in data set [2] and in data set [3] were 1.41 ± 0.039 kcal/mol, 1.65 ± 0.041 kcal/mol and 1.6 ± 0.14 kcal/mol, respectively.

Take “SMKKGEKIKIEKKKDGTLKITLPDGKEITVPLKDIKIEIKDGKIKITVFKDGKKIAEFELKIKKKKKKKKSA [r9_901_TrROS_Hall]”: the “folding stability dG unfold” value in data set [1] came to 1.71 ± 0.07 kcal/mol; in data set [2] it was 2.64 ± 0.11 kcal/mol; in data set [3], 2.31 ± 0.42 kcal/mol.

“SMKPEEVKVIAEIEIEVNGKKIKIKIVKKKDGTVRVEIEVDGKKIEIEVKVKSKEEAKKILEELLKKLGISA [r9_758_TrROS_Hall]”: the “folding stability dG unfold” value was 2.93 ± 0.4 kcal/mol in data set [1], 1.53 ± 0.14 kcal/mol in data set [2] and 2.41 ± 0.52 kcal/mol in data set [3].

Take “SMKPNEKFPSLEEVKEAAKRIAEEIEKKTGKKIEVEVKVETVKKEDGKEVVKITIVDKKTKKVIKEIEIKSA [r9_794_TrROS_Hall]”: the entries for the “folding stability dG unfold” value in data set [1], in data set [2] and in data set [3] were 2.18 ± 0.096 kcal/mol, 0.783 ± 0.076 kcal/mol and 1.58 ± 0.12 kcal/mol, respectively.

In the case of “SMKPYVYTHPEGITIPMFVLPDGTIKIEVTAFDPNNPVPLGKATATMDPATGTLNLTLPNGTSLSYTIPASA [r9_56_JUSTAS]”, the “folding stability dG unfold” value in data set [1] was determined as 2.45 ± 0.065 kcal/mol; in data set [2], 2.46 ± 0.1 kcal/mol; in data set [3], 2.5 ± 0.16 kcal/mol.
